How the values were obtained:
[1] = molecular target: CCDC112 on HCT116 tumor cells (including HCT116 cells stably overexpressing CCDC112) (human) (UniProt Q8NEF3); test: flow cytometry on HCT116 cells overexpressing CCDC112; ambiguous fit of a flat control curve (see non_binding); table gives no unit, unit from the x axis
[2] = molecular target: T1, CCDC112 recombinant protein (coiled-coil domain-containing protein 112) (human) (UniProt Q8NEF3); test: ELISA, coated CCDC112, LILRB2-hFc, 0 ug/mL CCDC112 antibody; number over the bar
T1 sequence: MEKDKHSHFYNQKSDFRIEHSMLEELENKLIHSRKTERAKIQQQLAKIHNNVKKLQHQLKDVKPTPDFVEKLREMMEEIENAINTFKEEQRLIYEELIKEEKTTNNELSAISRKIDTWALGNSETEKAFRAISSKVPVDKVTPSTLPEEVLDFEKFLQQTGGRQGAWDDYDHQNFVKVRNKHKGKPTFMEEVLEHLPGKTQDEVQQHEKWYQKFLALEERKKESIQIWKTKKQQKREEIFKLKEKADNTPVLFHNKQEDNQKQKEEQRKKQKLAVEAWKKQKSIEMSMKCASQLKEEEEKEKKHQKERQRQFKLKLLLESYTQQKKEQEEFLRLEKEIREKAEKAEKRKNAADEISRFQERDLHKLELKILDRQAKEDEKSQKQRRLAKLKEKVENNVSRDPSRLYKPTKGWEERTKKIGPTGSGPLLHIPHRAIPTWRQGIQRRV

Chain of LILRB2-hFc (LILRB2 extracellular region protein fragment labeled with hFc) (Q8N423 22-460): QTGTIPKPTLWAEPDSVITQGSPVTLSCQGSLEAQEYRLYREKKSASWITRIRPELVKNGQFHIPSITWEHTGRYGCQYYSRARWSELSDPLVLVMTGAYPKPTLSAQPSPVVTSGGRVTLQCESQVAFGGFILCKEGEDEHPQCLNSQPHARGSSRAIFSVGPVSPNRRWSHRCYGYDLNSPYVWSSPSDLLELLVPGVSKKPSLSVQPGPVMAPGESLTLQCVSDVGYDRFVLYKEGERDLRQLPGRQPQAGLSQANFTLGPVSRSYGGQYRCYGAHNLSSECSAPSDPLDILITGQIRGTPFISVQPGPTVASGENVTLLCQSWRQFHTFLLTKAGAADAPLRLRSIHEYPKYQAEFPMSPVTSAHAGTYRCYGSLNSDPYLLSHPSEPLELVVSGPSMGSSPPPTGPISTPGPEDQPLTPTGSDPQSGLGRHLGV

Substance | EC50 [1] [nM] | OD450 [2] [OD450]
mIgG1 (antibody) | 44.9 | 
LILRB2-hFc (LILRB2 extracellular region protein fragment labeled with hFc) (from UniProt Q8N423 22-460) (Fc fusion) |  | 1.58

From patent US20240101663A1
